Laboratory results as given in publication PMC5270629.

Tests used:
[1] = molecular target: recombinant von Willebrand factor (VWF) A2 domain polypeptide, A2_(1481-1668) (human) (UniProt P04275); test: ELISA
[2] = molecular target: fibrin monomer (UniProt P02675); test: ELISA

recombinant von Willebrand factor (VWF) A2 domain polypeptide, A2_(1481-1668), sequence (P04275 1481-1668): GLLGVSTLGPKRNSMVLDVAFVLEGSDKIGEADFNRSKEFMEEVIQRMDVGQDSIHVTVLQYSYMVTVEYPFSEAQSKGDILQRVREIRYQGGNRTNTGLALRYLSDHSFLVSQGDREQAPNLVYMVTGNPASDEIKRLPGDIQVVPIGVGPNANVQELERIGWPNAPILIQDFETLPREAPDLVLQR
recombinant von Willebrand factor (VWF) A2 domain polypeptide, A2_(1481-1668) (human), sequence (P04275 1481-1668): as above

| EC50 [1] [nM] | EC50 [2] [nM] | Substance |
| --- | --- | --- |
| 7 |  | fibrin monomer (from UniProt P02675 45-491; P02679 27-453) (complex) |
|  | 60 | recombinant von Willebrand factor (VWF) A2 domain polypeptide, A2_(1481-1668) (from UniProt P04275 1481-1668) (domain or fragment) |
